Assay results reported in US20090068110A1, “ANTIBODIES TO INSULIN-LIKE GROWTH FACTOR RECEPTOR” (Genentech, Inc., priority 2006, published 2009).

Columns and labels:
murine IGF-1R = biological target: T1, murine IGF-1R (Mus musculus, UniProt Q60751); assay: BIACORE surface-plasmon resonance, murine IGF-1R; type: binding
T1 construct: evaluated against human and murine IGF-1R-ECD
Experimental: Before HVR grafting, murine 2B4, 9F2, and 10H5Fab binding affinities were evaluated against human and murine IGF-1R-ECD using BIACORE™ instrument analysis. The procedure used was that for BIACORE™ instrument analyses generally, wherein the analyte was anti-IGF-1R Fab (500 nM-[…]; two-fold serial dilution), the ligand was IGF-1R (about 500 RU)-coated CM5 sensor chip, and the temperature was 25° C.
Binding affinities of selected antibodies to IGF-1R were determined by surface plasmon resonance measurements on a BIACORE™ 3000 instrument (BIAcore, Inc.). Human, murine, or cynomolgus-monkey IGF-1R was immobilized at a density of about 500 RU on the flow cells of a PIONEER™ CM5 sensor chip. Immobilization was achieved by random coupling through amino groups using a protocol provided by the manufacturer. Sensorgrams were recorded for binding of anti-IGF-1R Fab or IgG to these surfaces by injection of a series of solutions ranging from 500 nM to 3.1 nM and 250 nM to 0.78 nM in two-fold increments, respectively. The signal from the reference cell was subtracted from the observed sensorgram. Kinetic constants were calculated by non-linear regression analysis of the data according to a 1:1 Languir binding model using software supplied by the manufacturer.

[1] = test system: IGF-1R signaling (phospho-IGF-1R, AKT, ERK1/2); assay: Western blotting of IGF-1R signaling in MCF7 cells; type: cell-based, human; conditions: for inhibition of IGF-I-mediated AKT activation: serum-starved MCF7, IGF-I 50 ng/ml; for inhibition of IGF-II-mediated IGF-1R phosphorylation and downstream AKT and MAPK1/2 activation: serum-starved MCF7, IGF-II 100 ng/ml
Experimental: Also examined was the effect of these antibodies on ligand-dependent IGF-1R signaling by directly analyzing IGF-1R phosphorylation as well as major downstream pathways, such as AKT and MAPK activation. In this assay, MCF7 cells were grown in 6-well plates and serum was withdrawn for 16 hours. […] The cells were directly lysed in SDS sample buffer, and the lysate was analyzed by Western blotting using antibodies against IGF-1R, phospho-IGF-1R, AKT, phospho-AKT, ERK1/2, phospho-ERK1/2 (also called MAPK1/2 and phospho-MAPK1/2) (all from Cell Signaling Technology, Inc.; Beverly, Mass., USA).
For the IGF-1R signaling pathway analysis, MCF7 cells were grown in six-well plates for 24 hours and then serum starved (serum-free and phenol-free RPMI medium supplemented with 1 mg/mL BSA) overnight. The cells were first incubated with h10H5 for 20 minutes, then stimulated with 50 ng/mL IGF-1 or 100 ng/mL IGF-11 for ten minutes. Cells were directly lysed in SDS sample buffer to preserve protein phosphorylation. After brief sonication, the lysates were separated by SDS-PAGE and transferred to nitrocellulose membranes (Invitrogen; Carlsbad, Calif.), which were probed with anti-phospho-IGF-1R, AKT, and ERK1/2 antibodies. The same blots were then stripped using Stripping Buffer™ (Pierce Biotechnology; Rockford, Ill.) and re-probed with antibodies against total IGF-1R β, AKT, and ERK1/2.

MCF7 cells = assay: cell viability assay ([…]-GLO), MCF7; type: cell-based, human; design: key to Effect of IR3, 6D2, 9F2, and 10H5: +: growth inhibition; −: no or weak effect; conditions: MCF7, Breast Adenocarcinoma
Experimental: (§1) The different cell lines were cultured in their respective culture media at 37° C. in a humidified atmosphere of 5% CO2. Subsequently, cells were detached from tissue-culture flasks using the cell-dissociation solution, TRIPLE SELECT™ solution (InVitrogen, Carlsbad, Calif., USA), and centrifuged at 1000 rpm for five minutes. Detached cells were washed once with PBS, counted, and seeded in 96-well plates (Corning, N.Y., USA) at 2000 cells per well in 100 μL of culture media. After an overnight incubation at 37° C. in a humidified atmosphere of 5% CO2, the cell-culture medium was replaced with 50 μL of starvation medium consisting of serum-free RPMI 1640™ medium without phenol red. The cells were then starved for five hours in the incubator before addition of 25 μL of each anti-IGF-1R monoclonal antibody at various dilutions in serum-free RPMI 1640™ phenol red-free media. Later, 25 μL of phenol red-free RPMI 1640™ media supplemented with 4% of fetal bovine serum (FBS) (Sigma) with or without 4 ng/ml of human recombinant IGF-I were added on top of the 50 μL of antibody. The cells were then placed at 37° C. with 5% CO2 for 5 to 6 days. At the end of the assay, cell viability was measured using the […]-GLO® kit according to the manufacturer's instructions (Promega, Madison, Wis., USA).
For the cell viability assay, MCF7 cells were seeded onto 96-well plates at 2000 cells/well and incubated overnight at 37° C. in a humidified atmosphere of 5% CO2/95% air in RPMI 1640™ medium supplemented with 10% FBS (Sigma, St. Louis, Mo.) and 1% GLUTAMAX™ reagent (Promega, Madison, Wis.). The next day cells were starved in serum-free RPMI 1640™ medium (phenol red-free) for five hours followed by addition of serially diluted human chimeric versions of 9F2, 2B4, and 10H5, as well as h10H5.vX, for one hour. Subsequently, phenol red-free PRMI 1640™ medium supplemented with FBS or IGF-I was added to reach a final concentration of 1% FBS and 1 ng/mL IGF-I. Cells were then incubated with continuous IGF-1R antibody exposure. After five days, the cell viability was then determined using a […]-GLO™ kit (Promega, Madison, Wis.) according to the manufacturer's instructions.

PC3 = assay: cell viability assay, PC3; type: cell-based, human; design: key: +: growth inhibition; −: no or weak effect; conditions: PC3, Prostate Adenocarcinoma
Experimental: as §1

DU145 = assay: cell viability assay, DU145; type: cell-based, human; design: key: +: growth inhibition; −: no or weak effect; conditions: DU145, Prostate Adenocarcinoma
Experimental: as §1

T47D = assay: cell viability assay, T47D; type: cell-based, human; design: key: +: growth inhibition; −: no or weak effect; conditions: Breast Ductal Carcinoma
Experimental: as §1

KM12 = assay: cell viability assay, KM12; type: cell-based, human; design: key: +: growth inhibition; −: no or weak effect; conditions: KM12, Colorectal Adenocarcinoma
Experimental: as §1

SW480 = assay: cell viability assay, SW480; type: cell-based, human; design: key: +: growth inhibition; −: no or weak effect; conditions: SW480, Colorectal Adenocarcinoma
Experimental: as §1

HCT15 = assay: cell viability assay, HCT15; type: cell-based, human; design: key: +: growth inhibition; −: no or weak effect; conditions: HCT15, Colorectal Adenocarcinoma
Experimental: as §1

HMEC = assay: cell viability assay, HMEC; type: cell-based; design: key: +: growth inhibition; −: no or weak effect; conditions: Human Mammary Epithelial Cell
Experimental: as §1

T1 sequence (Q60751 31-737 limits assumed): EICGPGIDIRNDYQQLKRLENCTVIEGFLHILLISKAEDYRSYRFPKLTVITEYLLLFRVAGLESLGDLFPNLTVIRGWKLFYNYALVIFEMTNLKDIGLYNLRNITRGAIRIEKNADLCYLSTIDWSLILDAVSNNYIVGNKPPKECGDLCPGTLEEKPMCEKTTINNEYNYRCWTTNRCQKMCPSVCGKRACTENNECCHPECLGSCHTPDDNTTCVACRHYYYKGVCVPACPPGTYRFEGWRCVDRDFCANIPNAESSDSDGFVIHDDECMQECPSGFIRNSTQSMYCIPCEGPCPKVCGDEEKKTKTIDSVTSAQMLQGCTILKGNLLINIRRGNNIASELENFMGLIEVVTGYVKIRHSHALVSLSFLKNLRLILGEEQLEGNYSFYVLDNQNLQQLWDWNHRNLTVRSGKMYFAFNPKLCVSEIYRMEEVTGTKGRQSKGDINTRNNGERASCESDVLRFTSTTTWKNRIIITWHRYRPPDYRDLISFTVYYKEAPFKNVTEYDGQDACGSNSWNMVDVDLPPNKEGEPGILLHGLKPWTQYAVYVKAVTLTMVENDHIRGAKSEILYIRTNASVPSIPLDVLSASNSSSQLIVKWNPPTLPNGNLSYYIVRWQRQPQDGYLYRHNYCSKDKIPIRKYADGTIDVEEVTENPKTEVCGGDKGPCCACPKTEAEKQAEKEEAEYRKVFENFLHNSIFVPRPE
T1 sequence (Q60751 742-936 limits assumed): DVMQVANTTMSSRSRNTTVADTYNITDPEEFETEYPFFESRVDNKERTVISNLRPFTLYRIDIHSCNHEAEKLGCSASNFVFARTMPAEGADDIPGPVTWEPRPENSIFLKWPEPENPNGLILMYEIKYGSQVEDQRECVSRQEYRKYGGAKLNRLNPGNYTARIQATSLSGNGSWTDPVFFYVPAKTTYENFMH

B1: 9F2: mouse monoclonal anti-IGF-1R antibody from hybridoma 9F2.6.2, ATCC PTA-7018 (antibody, V domains shown)
VH: QIQLVQSGPELKKPGETVKISCKASGYTLANYGMNWVKQAPGKGFKWMGWINTNTGKPTYSDEFKGRFVFSLETSASTAYLLINNLSNEDTATYFCARSIYYYGSRYFNVWGAGTT
VL: DIQMTQSTSSLSASLGDRVTISCRASQDINNYLTWYQQKPDGTVKLLIYYTSRLHSGVPSRFSGSGSGTDYSLTITNLEQEDFATYFCQQGNTLPWTFGEGTKVEIKR
binding to mouse IGF-1R (murine IGF-1R): not to mouse IGF-1R or human insulin receptor
inhibition of IGF-I-mediated AKT activation [1]: potently prevented AKT activation
inhibition of IGF-II-mediated IGF-1R phosphorylation and downstream AKT and MAPK1/2 activation [1]: remained as strong inhibitors
Effect of IR3, 6D2, 9F2, and 10H5 (MCF7 cells): +
Effect of IR3, 6D2, 9F2, and 10H5 (PC3): −
Effect of IR3, 6D2, 9F2, and 10H5 (DU145): −
Effect of IR3, 6D2, 9F2, and 10H5 (T47D): −
Effect of IR3, 6D2, 9F2, and 10H5 (KM12): −
Effect of IR3, 6D2, 9F2, and 10H5 (SW480): +
Effect of IR3, 6D2, 9F2, and 10H5 (HCT15): −
Effect of IR3, 6D2, 9F2, and 10H5 (HMEC): −

B2: 10H5: mouse monoclonal anti-IGF-1R antibody from hybridoma 10H5.3.4, ATCC PTA-7007 (antibody, V domains shown)
VH: QVQLQQPGAELVKPGASVTLSCKASGYTFTRFWIHWVKQRPGQGLEWIGEINPSNGRTNYNENFKNKATLTVDTSSSTAYMQLSSLTSEVSVVYYCARGGRLDQWGQGTT
VL: DIVMTQSQKFMSTSLGDRVSVTCKASQNVGSNVAWYQQKPGQSPEALIYSASYRYSGVPDRFTGSGSGTDFTLTISNVQSEDLAEYFCHQYNNYPYTFGGGTKVEIKR
binding to mouse IGF-1R (murine IGF-1R): not to mouse IGF-1R or human insulin receptor
inhibition of IGF-I-mediated AKT activation [1]: potently prevented AKT activation
inhibition of IGF-II-mediated IGF-1R phosphorylation and downstream AKT and MAPK1/2 activation [1]: remained as strong inhibitors
Effect of IR3, 6D2, 9F2, and 10H5 (MCF7 cells): +
Effect of IR3, 6D2, 9F2, and 10H5 (PC3): −
Effect of IR3, 6D2, 9F2, and 10H5 (DU145): −
Effect of IR3, 6D2, 9F2, and 10H5 (T47D): −
Effect of IR3, 6D2, 9F2, and 10H5 (KM12): −
Effect of IR3, 6D2, 9F2, and 10H5 (SW480): +
Effect of IR3, 6D2, 9F2, and 10H5 (HCT15): −
Effect of IR3, 6D2, 9F2, and 10H5 (HMEC): −
